According to PMC5381215 (2017):

Experiments:
Test in all cases: SPR
HSA peptide 40 = HSA peptide 40 (human, UniProt P02768)
HSA peptide 4 = HSA peptide 4 (human, UniProt P02768)
HSA peptide 13 = HSA peptide 13 (human, UniProt P02768)

- Kd (HSA peptide 40): 0.00052 µM
- Kd (HSA peptide 4): 0.057 µM
- Kd (HSA peptide 13): 0.4 µM
B1: rituximab (antibody, V domains shown)
VH: QVQLQQPGAELVKPGASVKMSCKASGYTFTSYNMHWVKQTPGRGLEWIGAIYPGNGDTSYNQKFKGKATLTADKSSSTAYMQLSSLTSEDSAVYYCARSTYYGGDWYFNVWGAGTTVTVSA
VL: QIVLSQSPAILSASPGEKVTMTCRASSSVSYIHWFQQKPGSSPKPWIYATSNLASGVPVRFSGSGSGTSYSLTISRVEAEDAATYYCQQWTSNPPTFGGGTKLEIK
modifications: AlexaFluor 488 label (only in the ImageStream experiment, a3)
